Data from US20260116971A1 (published 2026).
Residue numbers refer to the chain shown, from its start.

B1: anti-Nectin-2 monoclonal antibody clone 7 (antibody, V domains shown)
VH: DVNLVESGGGLVKPGGSLKLSCAASGFTFSRFTMSWVRQTPEKTLDWVATISSGGSYTYYPDSVKGRFTISRDNAKNTLYLQMSSLKSEDTAMYYCTRDRDFYGPYYAMDYWGQGTSVTVSS
VL: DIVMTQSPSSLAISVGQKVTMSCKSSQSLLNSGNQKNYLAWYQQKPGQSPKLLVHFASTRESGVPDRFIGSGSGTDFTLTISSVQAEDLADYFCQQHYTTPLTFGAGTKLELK
B2: anti-Nectin-2 monoclonal antibody clone 11 (antibody, V domains shown)
VH: EVQLQQSGTVLTRPGASVKMSCKASGYIFTSYWIHWVKQRPGQGLEWIGAVYPGNSDSNYNQKFKAKAKLTAVTSTSTAYMELSSLTSEDSAVYYCTKLVGTFDYWGQGTTLTVSS
VL: DIVMTQSQKFMSSSIGDRVSVTCKASQNVGINVVWYQQRAGQSPKTLIYSASYRYSGVPDRFTGSGSGTDFTLTISNVQSEDLAEYFCQQYNTNPFTFGSGTKLEIK

What was measured:
[1] = target: T1, Chlorocebus (African green monkey) Nectin-2 (Chlorocebus (African green monkey)); experiment: FACS binding; Vero cells
T1 chain: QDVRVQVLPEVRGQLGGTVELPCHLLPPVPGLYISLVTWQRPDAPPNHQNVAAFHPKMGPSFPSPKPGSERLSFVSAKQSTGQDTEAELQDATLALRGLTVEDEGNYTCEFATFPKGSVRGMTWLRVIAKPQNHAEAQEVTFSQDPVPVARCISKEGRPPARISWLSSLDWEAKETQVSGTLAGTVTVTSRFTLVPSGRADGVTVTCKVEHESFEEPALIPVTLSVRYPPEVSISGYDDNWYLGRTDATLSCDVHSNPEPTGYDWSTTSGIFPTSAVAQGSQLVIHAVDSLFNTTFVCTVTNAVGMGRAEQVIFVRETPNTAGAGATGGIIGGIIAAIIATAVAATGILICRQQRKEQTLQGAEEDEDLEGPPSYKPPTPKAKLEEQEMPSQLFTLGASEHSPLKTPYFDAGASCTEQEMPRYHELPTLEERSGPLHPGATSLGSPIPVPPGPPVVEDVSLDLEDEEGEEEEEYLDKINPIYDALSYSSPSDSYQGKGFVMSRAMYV

[2] = target: T2, cynomolgus (Cyno) monkey (Macaca fascicularis) Nectin-2 (cynomolgus monkey (Macaca fascicularis), UniProt A0A2K5U084 32-538); experiment: FACS binding; CHO cells expressing cyno Nectin-2
T2 chain: T1 chain with N47D, E70Q, G82R, I481V

| Binder | EC50 [1] | EC50 [2] |
| --- | --- | --- |
| B1 | 0.23 nM | 0.66 nM |
| B2 | 0.16 nM | 0.2 nM |
